In paper PMC4477659:
pKd: −log10 of the molar value.

Key:
Test in all cases: filter binding
Conditions in all cases: Filter binding: 10 mM HEPES, 3 mM MgCl2, 1 mM DTT, 5% glycerol, 100 mM KCl, 0.05 mg/ml tRNA, 5 uM BSA, 30 C 15 min; UV crosslinking: 10 mM HEPES pH 7.9, 3 mM …
[1] = test system: PTBP3 AUG11 isoform del1-103 (human), O95758-5
[2] = test system: T1, PTBP3 AUG4 isoform del1-31 (human), O95758-5
T1 sequence: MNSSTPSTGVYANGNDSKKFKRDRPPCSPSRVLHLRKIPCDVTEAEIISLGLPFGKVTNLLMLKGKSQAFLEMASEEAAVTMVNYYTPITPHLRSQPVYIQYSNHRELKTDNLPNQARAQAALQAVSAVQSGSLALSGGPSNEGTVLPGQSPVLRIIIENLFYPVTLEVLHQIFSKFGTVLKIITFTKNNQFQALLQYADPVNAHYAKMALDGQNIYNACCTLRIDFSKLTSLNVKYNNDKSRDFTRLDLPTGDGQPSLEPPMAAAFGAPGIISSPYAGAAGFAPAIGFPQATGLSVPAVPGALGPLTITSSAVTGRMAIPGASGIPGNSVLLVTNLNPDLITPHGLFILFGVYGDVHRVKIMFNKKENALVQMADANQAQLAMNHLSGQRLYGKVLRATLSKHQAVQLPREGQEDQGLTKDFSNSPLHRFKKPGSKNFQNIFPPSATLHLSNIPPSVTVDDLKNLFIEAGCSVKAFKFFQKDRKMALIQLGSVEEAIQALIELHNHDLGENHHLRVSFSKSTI

[3] = test system: PTBP3 ΔRRM1 (human), O95758-5

Substance	pKd [1]	pKd [2]	pKd [3]
CUCUCUCUCUCUCUCUCUCUCUCU [[CUCUCU]4]	7.36	7.46	7.12
EMCV IRES	8.37	8.19	8.19
MTDH exon 7 RNA	7.20	7.04	7.04
PV IRES	7.63	7.36	7.63
